Experiments:
[1] = target: T1, knowpain-4 (KP4) (Plasmodium knowlesi, UniProt A0A384LCH8); test: inhibition of Z-LR-AMC hydrolysis, fluorescence; format: biochemical; conditions: 10 µM inhibitor, 10 nM enzyme, 5 min preincubation, sodium acetate pH 5.5, 25 µM Z-LR-AMC; covalent
T1 construct: gene PKNH_0912800

[2] = target: T2, knowpain-3 (KP3) (Plasmodium knowlesi, UniProt A0A384KX24); test: inhibition of Z-LR-AMC hydrolysis, fluorescence; format: biochemical; conditions: 10 µM inhibitor, 100 nM enzyme, 5 min preincubation, sodium acetate pH 5.5, 25 µM Z-LR-AMC; covalent
T2 construct: gene PKNH_0912900

[3] = test system: Cc1cc(=O)oc2cc(NC(=O)[C@H](CCCNC(=N)N)NC(=O)[C@H](CC(C)C)NC(=O)OCc3ccccc3)ccc12; test: purified protein; conditions: 100 mM sodium acetate pH 5.5, 10 mM DTT, 37°C
[4] = test system: Cc1cc(=O)oc2cc(NC(=O)[C@H](CCCNC(=N)N)NC(=O)[C@H](Cc3ccccc3)NC(=O)OCc3ccccc3)ccc12; test: purified protein; conditions: 100 mM sodium acetate pH 5.5, 10 mM DTT, 37°C
Source text: (§1) fluorogenic AMC release, initial rates, ORIGIN fit on knowpain-4 (KP4)

[5] = test system: Cc1cc(=O)oc2cc(NC(=O)[C@H](CCCNC(=N)N)NC(=O)[C@H](CCCNC(=N)N)NC(=O)OCc3ccccc3)ccc12; test: purified protein; conditions: 100 mM sodium acetate pH 5.5, 10 mM DTT, 37°C
Source text: as §1

T1 sequence (A0A384LCH8 entry or part of it): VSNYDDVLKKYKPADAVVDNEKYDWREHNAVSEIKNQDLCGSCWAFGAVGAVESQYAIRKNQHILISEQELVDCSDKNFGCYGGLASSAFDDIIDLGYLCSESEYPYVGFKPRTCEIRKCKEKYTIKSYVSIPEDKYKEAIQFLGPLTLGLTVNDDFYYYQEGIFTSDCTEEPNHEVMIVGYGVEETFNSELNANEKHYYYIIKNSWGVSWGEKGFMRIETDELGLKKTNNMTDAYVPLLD
T2 sequence (A0A384KX24 entry or part of it): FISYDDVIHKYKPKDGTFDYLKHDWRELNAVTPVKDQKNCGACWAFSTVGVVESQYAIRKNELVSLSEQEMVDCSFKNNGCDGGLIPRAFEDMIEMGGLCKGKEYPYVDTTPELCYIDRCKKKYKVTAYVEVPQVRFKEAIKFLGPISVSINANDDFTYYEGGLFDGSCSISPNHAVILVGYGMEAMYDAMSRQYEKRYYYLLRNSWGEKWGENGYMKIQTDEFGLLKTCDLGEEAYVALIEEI

Molecule	% of control activity at 10 μM [1]	% of control activity at 10 μM [2]	Km [3] [µM]	kcat [3] [s⁻¹]	kcat/Km [3] [M⁻¹ s⁻¹]	Km [4] [µM]	kcat [4] [s⁻¹]	kcat/Km [4] [M⁻¹ s⁻¹]	Km [5] [µM]	kcat [5] [s⁻¹]	kcat/Km [5] [M⁻¹ s⁻¹]
CC(C)C[C@H](NC(=O)[C@@H]1O[C@H]1C(=O)O)C(=O)NCCCCN=C(N)N [E64, trans-epoxysuccinyl-L-leucylamido-(4-guanidino) butane]	blocked by the cysteine protease inhibitors E64 and leupeptin	blocked by the cysteine protease inhibitors E64 and leupeptin	–	–	–	–	–	–	–	–	–
knowpain-2 (KP2) (Plasmodium knowlesi strain H)	–	–	14.26 ± 0.27	0.0011	75.6	–	–	–	–	–	–
knowpain-3 (KP3) (Plasmodium knowlesi strain H)	–	–	30.56 ± 1.23	0.0156	511	–	–	–	–	–	–
knowpain-4 (KP4) (Plasmodium knowlesi strain H)	–	–	4.20 ± 0.25	0.0129	3070	4.20 ± 0.19	0.0062	1470	2.13 ± 0.17	0.0435	20500
